Assay results as given in patent US20250230236A1 (SINGAPORE HEALTH SERVICES PTE, published 2025).

Biological target: T1, GRP78 (UniProt P11021 19-654)
T1 construct: Endogenous protein of PC-9 cells
Test: cross-immunoprecipitation
Method: FIGS. 6A-6B show A) immunoprecipitation with GR 6A04. Boxed area was excised for mass spectrometry. B) Mass spectrometry analysis of excised region identified the top 5 putative antigens after removal of non-specific hits found in the same region in the Column Control lane. […] The antigen identity was then validated by a pull-down with commercial antibodies against the target, and a cross-probe of the immunoprecipitated products with GR 6A04, and vice-versa. GRP78 was tested by cross-IP and ruled out as possible antigen for GR 6A04.
Immunoprecipitation (IP) was conducted using the automated Phynexus MEA system (Phynexus Inc., USA). GR6A04 was captured onto Protein G PhyTip columns containing 5 ul of resin bed. The column was then washed with PBS to remove unbound proteins, and PC-9 membrane protein extract was introduced to bind to GR6A04 that has been captured on the column. The column was then washed with Wash Buffer II (140 mM NaCl, pH7.4) before elution at low pH with Elution Buffer (200 mM NaH2PO4/140 mM NaCl pH 2.5) and neutralized immediately with 1 M Tris-Cl pH 9.0. The IP product is then subjected to analysis by Western blot.

T1 sequence (P11021 19-654 limits assumed): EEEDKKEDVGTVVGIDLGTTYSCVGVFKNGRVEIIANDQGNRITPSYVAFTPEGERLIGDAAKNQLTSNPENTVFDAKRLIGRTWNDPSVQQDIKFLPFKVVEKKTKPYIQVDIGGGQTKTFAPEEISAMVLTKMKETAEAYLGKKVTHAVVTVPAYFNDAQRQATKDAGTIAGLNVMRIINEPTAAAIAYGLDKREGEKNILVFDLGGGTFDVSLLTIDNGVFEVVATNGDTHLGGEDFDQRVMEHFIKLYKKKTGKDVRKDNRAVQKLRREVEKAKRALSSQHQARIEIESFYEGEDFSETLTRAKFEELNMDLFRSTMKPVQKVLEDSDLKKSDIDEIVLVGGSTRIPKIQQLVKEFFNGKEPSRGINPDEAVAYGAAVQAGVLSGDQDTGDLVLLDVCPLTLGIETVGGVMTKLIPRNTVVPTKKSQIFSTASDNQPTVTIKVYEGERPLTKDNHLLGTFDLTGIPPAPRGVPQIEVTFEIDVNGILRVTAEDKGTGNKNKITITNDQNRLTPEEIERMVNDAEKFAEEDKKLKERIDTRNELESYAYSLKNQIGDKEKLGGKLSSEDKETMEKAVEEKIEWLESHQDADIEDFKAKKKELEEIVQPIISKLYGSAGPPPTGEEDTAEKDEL

binding result: no binding
B1: GR6A04 monoclonal antibody (antibody, mouse IgG1, V domains shown)
VH: SGPELVKPGASVKMSCKASGNTFTSYVMHWVKQKPGQGLEWIGYINPYNDGTKYNEKFKGKATLTSDKSSSTAYMELSSLTSEDSAVYYCARSTARATPYFYAMDYWGQGTSVTVSS
VL: DILMTQSPSSLAVTAGEKVTMRCKSSQSLLWSVNQNSYLSWYQLKQGQPPKLLLYGASIRESWVPDRFTGSGSGTDFTLTISNVHVEDLAVYYCQHNHGSFLPYTFGGGTKLEIK
notes: also called mAb GR 6A04
